Several values for one entry are separate records, joined by “and”; a condition that tells them apart may be missing. Identical values can stand only once. Entries after “also recorded” stand apart in the source; their conditions may differ.
Legend:
[1] = tested on: RS4;11 (CD19 positive); type: cell-based, human
Method: Activity was assessed against NALM-6 (CD19^+), RS4;11 (CD19^+), or RPMI-8226 (CD19^−) (Table 2). The activity of the IgG (FcNull) switch was assessed against RS4;11 (CD19^+), or K562 (CD19^−) (Table 2). The activity of the C-terminal switch was assessed against RS4;11 (CD19^+), or K562 (CD19^−) (Table 4).
(§1) sCAR-T cells were co-cultured (96-well plate round bottom; 20-24h; 37° C.; 5% CO2) with RS4;11 (CD19^+) or K562 (CD19^−) cells at a ratio of 10 sCAR-T cells to 1 RS4;11/K562 cell (110,000 cells in total) in 100 uL of RPMI-1640 supplemented with 5% heat inactivated fetal calf serum (Thermo), 1% penicillin-streptomycin (Gibco), 1% L-Glutamine (Gibco), 1 mM sodium pyruvate (Gibco) and 1% non-essential amino acids (Gibco). After 24 hours, each plate was centrifuged at 400×g for 5 minutes at 4° C. To measure target cell lysis, the intracellular protein lactate dehydrogenase (LDH) was measured in the cytotoxicity assay supernatants from the co-cultured cells using the CytoTox 96® Non-Radioactive Cytotoxicity Assay kit (Promega). To measure the effector responses of the sCART cells in vitro, cytokine levels were measured in the cytotoxicity assay supernatants using the Cytometric Bead Array (CBA) Human Th1/Th2 Cytokine Kit II (BD). […]
The GCN4 CAR design was therefore modified to contain the CD8 hinge region (used in CART-19), which has an extracellular CAR domain of approximately 80 Å, and an IgG4 hinge with an extracellular CAR domain of approximately 15-30 Å. An additional construct was developed where a mutation was introduced into the IgG4 hinge that allows for spontaneous disulphide bridge formation between receptor molecules (IgG4m). […] Briefly, activated PBMC were transduced with lentivirus (SEQ ID: 1) containing the anti-PNE CAR construct (SEQ ID: 180) with the CD8 (SEQ ID: 68), IgG4 (SEQ ID: 70) and IgG4m (SEQ ID: 71) hinge domains.
Monovalent and bivalent combinations of these switches were expressed in mammalian protein expression systems (HEK293 or CHO cells) and purified using protein-G columns. Switches were used in cytotoxicity assays at a dose titration within the range of 10 nM to 0.0001 nM. The activity of each switch combination was tested in vitro in the General cytotoxicity assays where LDH release, cytokine production and sCART cell activation were compared (FIGS. 11A-11C).
CAR-T or target cells were incubated with 1 pM to […] of switch in FACS buffer (PBS, 1% FCS, 2 mM EDTA) for 30 minutes at 4° C. before being washed twice and then incubated with the PE-conjugated goat-anti-human kappa antibody (1:100). Cells were washed two times and analyzed using the Accuri flow cytometer (BD). CAR-T cell activity was determined using the CytoTox 96® Non-Radioactive Cytotoxicity Assay (Promega). CAR-T cells were incubated with target cells in the presence of switch for 20-24 hours at 37° C. in complete RPMI with 5% FCS. At the end of the assay, 30 μL of cell free supernatant was added to 30 μL of the LDH assay reagent in a 96-well plate and incubated for 30 minutes at room temperature in the dark; 30 μL of stop solution was added before the plate was read at OD495.

[2] = tested on: Nalm-6^Luc/GFP cells; assay: Nalm-6 Luc/GFP leukemia xenograft; type: in vivo; conditions: short-dimeric sCAR-T cells; 0.5 mg/kg every other day from day 6
Method: NSG mice were inoculated with CD19^+ Nalm-6^GFP/Luc cells. Six days later, 40×10^6 sCAR-T cells were delivered IV and switch dosing commenced every other day at 0.5 mg/kg for 10 days. Tumor burden was followed by luminescence after injection of luciferin and imaged on an in vivo imaging system (IVIS; PerkinElmer, Waltham, Mass., USA).
Asterisks indicate significance from LCNT Fab group. Data are represented as means±SEM, and statistical significance was calculated using the 2-way ANOVA with Bonferroni's post-test (B & E; shown for final time-point only) or by one-tailed student's t-test (C & F) where *=p<0.05, **=p<0.01 and ***=p<0.001.
NSG mice were inoculated with Nalm-6^GFP/Luc as described in FIG. 28. […] A fourth group consisted of two cohorts (n=3) of mice injected I.V. with sCAR-T cells without (−) LCNT Fab switch. LCNT Fab dosing in the indicated group was carried out daily at 0.5 mg/kg after the initial T cell infusion. Luminescence was measured at 6 h and subsequently every 24 h as indicated. Cohorts were sacrificed for analysis immediately following IVIS imaging. […] Gray lines indicate tumor burden in PBS and sCAR-T cell—LCNT Fab controls. […] Data are represented as means±SEM, and statistical significance was calculated using the one-tailed student's t-test (C & D) where *=p<0.05, **=p<0.01 and ***=p<0.001.
NSG mice were inoculated with Nalm6^GFP/Luc and six days later engrafted with short-dimeric sCAR-T cells as described in FIG. 29. […] Dosing was carried out for 15 d starting at day 6 (corresponding with sCAR-T cell infusion) as indicated by gray shading. Control groups CART-19 and PBS received no switch. The NS group received sCAR-T cells but no switch. Open circles denote the death of individual mice without evidence of tumor burden and may reflect GVHD. Triangles in PBS, NS and q.a.d. group indicate death due to increasing tumor burden. […] (19) indicates CART-19. […] (19) indicates CART-19. […] Triangles indicate the death of individual mice with significant tumor burden. The single mouse death in the 0.05 mg/kg group occurred while tumor burden was decreasing. […] Statistical significance was calculated using the one-tailed student's t-test (B, C & E) where *=p<0.05, **=p<0.01 and ***=p<0.001.
The different sCAR designs were tested in a xenograft model harboring luciferized NALM-6 (CD19+, CD80−, CD86−) cells. 1 mg/kg monovalent switch “A” was administered along with sCAR cells. […] Optimized hinge improved response. Short hinge CARs have faster clearance. Short, dimeric hinge CARs have improved persistence. Tumor burden was visualized with IVIS imaging. Experiments are repeated with a humanized scFv and bivalent switches.
Activity of the switchable CAR-T cell platform in vivo was evaluated via tumor regression in a Nalm-6^Luc/GFP leukemia xenograft model in immunodeficient NOD scid gamma (NSG) mice. These mice without treatment succumb to disease within 21 days. The impact of CAR hinge design on in vivo efficacy was determined using mice inoculated with Nalm-6^Luc/GFP, followed by I.V. injection of long, short, or short-dimeric sCAR-T cells 6 days later. The LCNT Fab was dosed I.V. (0.5 mg/kg) every other day for 10 days and tumor regression was followed by in vivo imaging (IVIS) of the luciferase signal from Nalm-6^Luc/GFP cells (FIG. 29A).
The effect of switch grafting position on the control of tumor burden was determined. As with the previous model, short-dimeric CAR-T cells were injected 6 days after tumor inoculation and mice were treated every other day (starting at day 6) with 0.5 mg/kg LCNT, HCNT, NTBV, LCC1, or HCCT Fab switches (FIG. 29D).
To determine the proliferation and localization of sCAR-T cell cytotoxicity during this time interval, mice were sorted into 5 cohorts per treatment regimen and analyzed at 8, 24, 48, 72, and 96 h after treatment with short-dimeric sCAR-T cells+LCNT Fab switch or with conventional CART-19 and no switch. […]

[3] = tested on: RS4;11 cells; assay: Cytokine release (CBA) in cytotoxicity co-culture; type: cell-based, human; conditions: 1 nM switch
Method: as §1
CAR-T or target cells were incubated with 1 pM to […] of switch in FACS buffer (PBS, 1% FCS, 2 mM EDTA) for 30 minutes at 4° C. before being washed twice and then incubated with the PE-conjugated goat-anti-human kappa antibody (1:100). Cells were washed two times and analyzed using the Accuri flow cytometer (BD). CAR-T cell activity was determined using the CytoTox 96® Non-Radioactive Cytotoxicity Assay (Promega). […]

[4] = tested on: CD33+ MOLM14 cells; assay: Cytotoxicity assay, sCAR-T cells + anti-CD33 (hP67.6) switches; type: cell-based; design: unit not given here; conditions: duplicates
Excerpt: (§2) FIG. 38A illustrates multiple fusion/grafting locations: A=LCNT1 (light chain N terminus version 1), B=HCNT3 (heavy chain N terminus version 3), C=heavy chain C terminus, and D=light chain C terminus). […] Data shown are an average of duplicate samples, and error bars represent SD. Only the NT switches plus the BvCT and By CH1CL1 as references are depicted.
(§3) Monovalent and bivalent combinations of these switches were expressed and tested in cytotoxicity assays at a dose titration within the range of 0.4 nM to 0.0001 nM. […] Data shown are an average of duplicate samples, and error bars represent SD. Only the NT switches plus the BvCT and By CH1CL1 as references are depicted. cytokine secretion was measured.

[5] = tested on: MOLM14 cell line; assay: Cytokines in cytotoxicity assay supernatant (CBA Human Th1/Th2 II Kit); type: cell-based; design: unit not given here; conditions: duplicates
Excerpt: as §2, §3

anti-CD19 Fab HCCT: FMC63 anti-CD19 Fab, peptide on C-terminus of heavy chain (SEQ ID 27 & 34)
EC50 [1]: 0.02 ± 0.0009 nM | tumor burden (IVIS), switch graft position comparison [2]: little control

anti-CD19 Fab WT: FMC63 anti-CD19 Fab with no grafted peptide (SEQ ID 27 & 29) [reference compound]
cytotoxicity [1]: did not induce significant cytotoxicity

anti-CD19 Fab NTBV: FMC63 anti-CD19 Fab, peptide on N-terminus of light and heavy chain (SEQ ID 36 & 88)
cytokine production ([3]; CD8 hinge sCAR-T): induced the greatest cytokine production; also recorded: induced the greatest IL-2 production | increase in IL-2 production ([3]; CD8 sCAR-T cells): 50% | tumor burden (IVIS), switch graft position comparison [2]: greatest reduction in tumor burden

anti-CD19 IgG WT: FMC63 anti-CD19 IgG with no grafted peptide (SEQ ID 27 & 28) [reference compound]
cytotoxicity [1]: did not induce significant cytotoxicity

B1: hP67.6 HCNT: anti-CD33 hP67.6 Fab, GCN4 on heavy chain N-terminus, rigid linker SEQ ID 45 (SEQ ID 231 & 220) (protein)
light: DIQLTQSPSTLSASVGDRVTITCRASESLDNYGIRFLTWFQQKPGKAPKLLMYAASNQGSGVPSRFSGSGSGTEFTLTISSLQPDDFATYYCQQTKEVPWSFGQGTKVEVKRTVAAPSVFIFPPSDEQLKSGTASVVCLLNNFYPREAKVQWKVDNALQSGNSQESVTEQDSKDSTYSLSSTLTLSKADYEKHKVYACEVTHQGLSSPVTKSFNRGEC
heavy: NYHLENEVARLKKLLVGEAAAKEAAAKAEVQLVQSGAEVKKPGSSVKVSCKASGYTITDSNIHWVRQAPGQSLEWIGYIYPYNGGTDYNQKFKNRATLTVDNPTNTAYMELSSLRSEDTAFYYCVNGNPWLAYWGQGTLVTVSSARTKGPSVFPLAPSSKSTSGGTAALGCLVKDYFPEPVTVSWNSGALTSGVHTFPAVLQSSGLYSLSSVVTVPSSSLGTQTYICNVNHKPSNTKVDKKVEPKSC
modifications: GCN4 on heavy chain N-terminus; Made in lab - CD33 (hP67.6) LCWT; Made in Lab - CD33 (hP67.6) HCNT1
cytotoxicity (FIG. 38G) ([4]; switch 0.1 pM): 0 | cytotoxicity (FIG. 38G) ([4]; switch 3.2 pM): 10.3 and 8.3 | cytotoxicity (FIG. 38G) ([4]; switch 16 pM): 47.8 and 45.5 | cytotoxicity (FIG. 38G) ([4]; switch 80 pM): 65 and 64.4 | cytotoxicity (FIG. 38G) ([4]; switch 400 pM): 69.4 and 70.2 | IFNg in supernatant (FIG. 38H) [5]: 1037.59 and 876.36 | Il-2 in supernatant (FIG. 38H) [5]: 861.13 and 653 | TNFa in supernatant (FIG. 38H) [5]: 114.13 and 87.74

Source: US11091546B2, “Optimized PNE-based chimeric receptor T cell switches and uses thereof” (The Scripps Research Institute, priority 2015, dated 2021)
